Test results from patent US7091311 (GlaxoSmithKline, dated 2006).
Like-named read-outs stand apart in the source and are kept apart here. *1 amine or outer side, *2 acyl side, *3 side chain or, on linkers, in order; H or OH if unused. Bridges are numbered along the chain shown (N, C = ends). Where no end group is shown, it is not given here. [ ]: non-standard residue; d: D form. Phe(4-NO2) = N[C@@H](Cc1ccc([N+](=O)[O-])cc1)C(=O)O; Phe(3,4-Cl2) = N[C@@H](Cc1ccc(Cl)c(Cl)c1)C(=O)O; DiPhAla = diphenylalanine (source's own name); Ser(Bzl) = O=C([C@H](COCc1ccccc1)N[*:1])[*:2]; Phe(4-Cl) = N[C@@H](Cc1ccc(Cl)cc1)C(=O)O; 1Nal = N[C@@H](Cc1cccc2ccccc12)C(=O)O; 2Nal = N[C@@H](Cc1ccc2ccccc2c1)C(=O)O; NMeF = CN[C@@H](Cc1ccccc1)C(=O)O; hPhe = N[C@@H](CCc1ccccc1)C(=O)O; 2Thi = N[C@@H](Cc1cccs1)C(=O)O; Cha = N[C@@H](CC1CCCCC1)C(=O)O; NMeL = CN[C@@H](CC(C)C)C(=O)O; Phg = N[C@H](C(=O)O)c1ccccc1; Tle = CC(C)(C)[C@H](N)C(=O)O; NMeV = CN[C@H](C(=O)O)C(C)C; NMeA = CN[C@@H](C)C(=O)O; Nle = CCCC[C@H](N)C(=O)O; Nva = CCC[C@H](N)C(=O)O; Abu = CC[C@H](N)C(=O)O; Aib = CC(C)(N)C(=O)O; Sar = CNCC(=O)O

T1: full length human TPO-R (human, UniProt P40238 26-635)
T1 sequence (looked up): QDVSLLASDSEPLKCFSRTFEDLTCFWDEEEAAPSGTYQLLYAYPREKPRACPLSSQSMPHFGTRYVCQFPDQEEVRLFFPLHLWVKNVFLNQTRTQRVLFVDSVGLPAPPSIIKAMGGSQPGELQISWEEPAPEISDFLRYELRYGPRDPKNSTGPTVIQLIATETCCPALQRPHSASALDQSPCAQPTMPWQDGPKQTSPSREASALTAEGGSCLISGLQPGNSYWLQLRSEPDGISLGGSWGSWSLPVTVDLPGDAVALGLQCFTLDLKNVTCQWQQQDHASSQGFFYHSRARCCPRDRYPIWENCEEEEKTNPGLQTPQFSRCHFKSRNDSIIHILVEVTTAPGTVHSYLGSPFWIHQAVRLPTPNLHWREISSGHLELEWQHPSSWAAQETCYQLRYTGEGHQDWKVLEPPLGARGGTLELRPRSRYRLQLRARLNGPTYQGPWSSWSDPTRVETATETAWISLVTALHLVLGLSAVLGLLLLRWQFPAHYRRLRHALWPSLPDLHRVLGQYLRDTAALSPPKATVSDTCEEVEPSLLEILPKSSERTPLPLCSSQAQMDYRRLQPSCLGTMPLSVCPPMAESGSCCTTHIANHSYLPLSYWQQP

B1: [drawing CHEM-US-00027] / [drawing CHEM-US-00028] (SEQ ID NO:173) (peptide)
peptide: ADGPTLREWISFC
modifications: also: further groups not given here
B2: [drawing CHEM-US-00035] (SEQ ID NO:173)(SEQ ID NO:173) (peptide)
peptide: ADGPTLREWISFC
modifications: also: further groups not given here
B3: [drawing CHEM-US-00036] (SEQ ID NO:173)(SEQ ID NO:173) (peptide)
peptide: ADGPTLREWISFC
modifications: also: further groups not given here
B4: [drawing CHEM-US-00038] (SEQ ID NO:190)(SEQ ID NO:190) (peptide)
peptide: GPTLREWISFC
modifications: not fully specified; also: further groups not given here
B5: [drawing CHEM-US-00039] (SEQ ID NO:190)(SEQ ID NO:190) (peptide)
peptide: GPTLREWISFC
modifications: not fully specified; also: further groups not given here
B6: [drawing CHEM-US-00040] (SEQ ID NO:191)(SEQ ID NO:191) (peptide)
peptide: PTLREWISFC
modifications: not fully specified; also: further groups not given here
B7: [drawing CHEM-US-00041] (SEQ ID NO:191)(SEQ ID NO:191) (peptide)
peptide: PTLREWISFC
modifications: not fully specified; also: further groups not given here
B8: [drawing CHEM-US-00042] (SEQ ID NO:192)(SEQ ID NO:192) (peptide)
peptide: TLREWISFC
modifications: also: further groups not given here
B9: [drawing CHEM-US-00043] (SEQ ID NO:192)(SEQ ID NO:192) (peptide)
peptide: TLREWISFC
modifications: also: further groups not given here
B10: SEQ ID NO:12 cyclized, S - Sar (peptide)
peptide: CADGPTLREWI[Sar]FC
modifications: disulfide 1-14 (inferred); not fully specified
B11: SEQ ID NO:12 cyclized, S - Aib (peptide)
peptide: CADGPTLREWI[Aib]FC
modifications: disulfide 1-14 (inferred); not fully specified
B12: SEQ ID NO:12 cyclized, S - Nva (peptide)
peptide: CADGPTLREWI[Nva]FC
modifications: disulfide 1-14 (inferred); not fully specified
B13: SEQ ID NO:12 cyclized, S - Abu (peptide)
peptide: CADGPTLREWI[Abu]FC
modifications: disulfide 1-14 (inferred); not fully specified
B14: SEQ ID NO:12 cyclized, S - (N-Me-Ala) (peptide)
peptide: CADGPTLREWI[NMeA]FC
modifications: disulfide 1-14 (inferred); not fully specified
B15: SEQ ID NO:12 cyclized, S - (N-Me-Val) (peptide)
peptide: CADGPTLREWI[NMeV]FC
modifications: disulfide 1-14 (inferred); not fully specified
B16: SEQ ID NO:12 cyclized, S - (Nor-Leu) (peptide)
peptide: CADGPTLREWI[Nle]FC
modifications: disulfide 1-14 (inferred); not fully specified
B17: SEQ ID NO:12 cyclized, S - (t-Bu-Gly) (peptide)
peptide: CADGPTLREWI[Tle]FC
modifications: disulfide 1-14 (inferred); not fully specified
B18: SEQ ID NO:12 cyclized, S - (N-Me-Leu) (peptide)
peptide: CADGPTLREWI[NMeL]FC
modifications: disulfide 1-14 (inferred); not fully specified
B19: SEQ ID NO:12 cyclized, F - Homo-Phe (peptide)
peptide: CADGPTLREWIS[hPhe]C
modifications: disulfide 1-14 (inferred); not fully specified
B20: SEQ ID NO:12 cyclized, F - CHA (peptide)
peptide: CADGPTLREWIS[Cha]C
modifications: disulfide 1-14 (inferred); not fully specified
B21: SEQ ID NO:12 cyclized, F - Thi (peptide)
peptide: CADGPTLREWIS[2Thi]C
modifications: disulfide 1-14 (inferred); not fully specified
B22: SEQ ID NO:12 cyclized, F - (Ser(Bzl)) (peptide)
peptide: CADGPTLREWIS[Ser(Bzl)]C
modifications: disulfide 1-14 (inferred); not fully specified
B23: SEQ ID NO:12 cyclized, F - (N-Me-Ala) (peptide)
peptide: CADGPTLREWIS[NMeA]C
modifications: disulfide 1-14 (inferred); not fully specified
B24: SEQ ID NO:12 cyclized, F - (Phenylgly) (peptide)
peptide: CADGPTLREWIS[Phg]C
modifications: disulfide 1-14 (inferred); not fully specified
B25: SEQ ID NO:12 cyclized, F - (Pyridylala) (peptide)
peptide: CADGPTLREWIS[Pyridylala]C
modifications: not fully specified (bridges); also: cyclized, type not given here
B26: SEQ ID NO:12 cyclized, F - (p-Nitrophe) (peptide)
peptide: CADGPTLREWIS[Phe(4-NO2)]C
modifications: disulfide 1-14 (inferred); not fully specified
B27: SEQ ID NO:12 cyclized, F - (3,4-di-Cl-Phe) (peptide)
peptide: CADGPTLREWIS[Phe(3,4-Cl2)]C
modifications: disulfide 1-14 (inferred); not fully specified
B28: SEQ ID NO:12 cyclized, F - (p-Cl-Phe) (peptide)
peptide: CADGPTLREWIS[Phe(4-Cl)]C
modifications: disulfide 1-14 (inferred); not fully specified
B29: SEQ ID NO:12 cyclized, F - (2-Nal) (peptide)
peptide: CADGPTLREWIS[2Nal]C
modifications: disulfide 1-14 (inferred); not fully specified
B30: SEQ ID NO:12 cyclized, F - (1-Nal) (peptide)
peptide: CADGPTLREWIS[1Nal]C
modifications: disulfide 1-14 (inferred); not fully specified
B31: SEQ ID NO:12 cyclized, F - (DiPh - Ala) (peptide)
peptide: CADGPTLREWIS[DiPhAla]C
modifications: disulfide 1-14 (inferred); not fully specified
B32: SEQ ID NO:12 cyclized, F - (N-Me-Phe) (peptide)
peptide: CADGPTLREWIS[NMeF]C
modifications: disulfide 1-14 (inferred); not fully specified

Legend:
full length human TPO-R [1] = target: T1, full length human TPO-R; test: cell-based or functional assay
full length human TPO-R [2] = target: T1, full length human TPO-R; test: cell-based or functional assay; remark: listed apart in the source

Binder | EC50 cell proliferation (full length human TPO-R [1]) | EC50 microphysiometer (full length human TPO-R [1]) | EC50 cell proliferation (full length human TPO-R [2]) | EC50 microphysiometer (full length human TPO-R [2])
B1 | ≤ 500 nM | ≤ 500 nM | – | –
B2 | ≤ 500 nM | – | – | –
B3 | ≤ 500 nM | ≤ 500 nM | – | –
B4 | ≤ 500 nM | – | – | –
B5 | ≤ 500 nM | ≤ 500 nM | – | –
B6 | ≤ 500 nM | – | – | –
B7 | ≤ 500 nM | ≤ 500 nM | – | –
B8 | ~200000 nM | ~200000 nM | – | –
B9 | ~200000 nM | ≤ 500 nM | – | –
B10 | – | – | ~200000 nM | –
B11 | – | – | ≤ 500 nM | ≤ 200000 nM
B12 | – | – | ≤ 500 nM | ≤ 500 nM
B13 | – | – | ≤ 500 nM | –
B14 | – | – | ~200000 nM | –
B15 | – | – | ≤ 200000 nM | –
B16 | – | – | ≤ 500 nM | –

Binder | EC50 cell proliferation (full length human TPO-R [1]) | EC50 microphysiometer (full length human TPO-R [1]) | EC50 cell proliferation (full length human TPO-R [2]) | EC50 microphysiometer (full length human TPO-R [2])
B17 | – | – | ~200000 nM | –
B18 | – | – | ≤ 200000 nM | –
B19 | – | – | ≤ 500 nM | ≤ 500 nM
B20 | – | – | ≤ 500 nM | ≤ 500 nM
B21 | – | – | ≤ 500 nM | –
B22 | – | – | ≤ 500 nM | –
B23 | – | – | ~200000 nM | –
B24 | – | – | ≤ 500 nM | ≤ 500 nM
B25 | – | – | ≤ 500 nM | –
B26 | – | – | ≤ 500 nM | ≤ 500 nM
B27 | – | – | ≤ 500 nM | ≤ 200000 nM
B28 | – | – | ≤ 500 nM | –
B29 | – | – | ≤ 500 nM | ≤ 500 nM
B30 | – | – | ≤ 500 nM | –
B31 | – | – | ≤ 500 nM | –
B32 | – | – | ≤ 500 nM | –
